# Experimental data published in article PMC9601868.
# Molecular target: ZFP932 KRAB domain (5–76), AviTagged, monobiotinylated (murine)
# Assay: SPR; Biacore X100, Sensor Chip CAP; monobiotinylated KRAB domain immobilised; concentration series of Trim28 RBCC, 60 s injections; 10 mM TRIS/HCl pH 8.0, 300 mM NaCl, 0.1 mM TCEP, 0.005% tween 20; equilibrium analysis
# ZFP932 KRAB domain (5–76), AviTagged, monobiotinylated (murine), sequence (E9QAG8 5-76): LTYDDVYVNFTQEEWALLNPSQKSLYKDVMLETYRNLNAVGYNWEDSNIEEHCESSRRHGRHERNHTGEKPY
row,Kd [µM],Substance
1,30.8,Trim28 RBCC (58–418) L301S (from UniProt Q62318 58-418) (domain or fragment)
2,15.9,Trim28 RBCC (58–418) K305E (from UniProt Q62318 58-418) (domain or fragment)
3,6.5,Trim28 RBCC (58–418) L301A (from UniProt Q62318 58-418) (domain or fragment)

# Molecular target: ZFP932 KRAB domain (5–76), AviTagged, monobiotinylated (murine)
# Assay: SPR; Biacore X100, Sensor Chip CAP; monobiotinylated KRAB domain immobilised (~100 RU); 1 μM Trim28 RBCC injected 60 s, 600 s wash; 10 mM TRIS/HCl pH 8.0, 300 mM NaCl, 0.1 mM TCEP, 0.005% tween 20; kinetic analysis, two-state reaction model
row,Substance,Kd [µM]
1,Trim28 RBCC (58–418) K290E (from UniProt Q62318 58-418) (domain or fragment),0.132
2,Trim28 RBCC (58–418) M298S (from UniProt Q62318 58-418) (domain or fragment),0.671
3,Trim28 RBCC (58–418) M298A (from UniProt Q62318 58-418) (domain or fragment),0.324
4,Trim28 RBCC (58–418) V294S (from UniProt Q62318 58-418) (domain or fragment),0.319
5,Trim28 RBCC (58–418) R312E (from UniProt Q62318 58-418) (domain or fragment),0.212

# The remaining lines, values ahead:
row,Kd [µM],Substance
1,0.0278,Trim28 RBCC (58–418) R312A (from UniProt Q62318 58-418) (domain or fragment)
2,0.113,Trim28 RBCC (58–418) V294A (from UniProt Q62318 58-418) (domain or fragment)
3,0.0541,Trim28 RBCC (58–418) K297A (from UniProt Q62318 58-418) (domain or fragment)
4,0.0203,Trim28 RBCC (58–418) M304S (from UniProt Q62318 58-418) (domain or fragment)
5,0.0311,Trim28 RBCC (58–418) K305A (from UniProt Q62318 58-418) (domain or fragment)
6,0.0263,Trim28 RBCC (58–418) I300A (from UniProt Q62318 58-418) (domain or fragment)
7,0.0358,Trim28 RBCC (58–418) I300S (from UniProt Q62318 58-418) (domain or fragment)
8,0.0373,Trim28 RBCC (58–418) K290A (from UniProt Q62318 58-418) (domain or fragment)
9,0.0242,Trim28 RBCC (58–418) M304A (from UniProt Q62318 58-418) (domain or fragment)
10,0.0146,"Trim28 RBCC (58–418), wild type (from UniProt Q62318 58-418) (domain or fragment)"
